Assay results taken from article PMC2193258.
Blank lines part the entries; values can stand above or below the molecule they belong to.

Experiments:
[1] = molecular target: glycocalicin (the soluble extracellular domain of platelet glycoprotein Ibα) (human) (UniProt P07359); assay: cell adhesion assay, competition
[2] = molecular target: Mac-1 (αMβ2, CD11b/CD18) on THP-1 monocytic cells (human (endogenous in THP-1)), P11215; assay: cell adhesion assay, competition; conditions: remark: other sources report otherwise

UniProt P07359, sequence (P07359 17-531): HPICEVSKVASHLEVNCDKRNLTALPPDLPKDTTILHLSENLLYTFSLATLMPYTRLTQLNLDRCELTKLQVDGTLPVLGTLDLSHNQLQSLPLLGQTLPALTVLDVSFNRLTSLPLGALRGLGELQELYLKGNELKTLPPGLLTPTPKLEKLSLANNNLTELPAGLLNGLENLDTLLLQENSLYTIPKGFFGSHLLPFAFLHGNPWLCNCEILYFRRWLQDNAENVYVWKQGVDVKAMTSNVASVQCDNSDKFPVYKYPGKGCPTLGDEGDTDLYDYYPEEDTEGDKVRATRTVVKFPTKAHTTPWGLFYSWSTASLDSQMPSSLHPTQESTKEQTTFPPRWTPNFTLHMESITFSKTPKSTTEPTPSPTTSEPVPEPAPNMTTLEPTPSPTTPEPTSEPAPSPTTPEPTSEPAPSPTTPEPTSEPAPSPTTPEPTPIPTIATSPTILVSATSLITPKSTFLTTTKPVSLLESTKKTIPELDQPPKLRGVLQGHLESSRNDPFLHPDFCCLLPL

- percent inhibition of THP-1 adhesion to GP Ibα [1]: 83%
Molecule: 39/34-kD dispase fragment of vWf encompassing the A1 domain (Leu480–Gly718) (domain or fragment)

- percent inhibition of THP-1 adhesion to GP Ibα [2]: 99%
B1: human fibrinogen, P02671-2 20-644; P02675 31-491; P02679-2 27-437 (complex)
chain 1: ADSGEGDFLAEGGGVRGPRVVERHQSACKDSDWPFCSDEDWNYKCPSGCRMKGLIDEVNQDFTNRINKLKNSLFEYQKNNKDSHSLTTNIMEILRGDFSSANNRDNTYNRVSEDLRSRIEVLKRKVIEKVQHIQLLQKNVRAQLVDMKRLEVDIDIKIRSCRGSCSRALAREVDLKDYEDQQKQLEQVIAKDLLPSRDRQHLPLIKMKPVPDLVPGNFKSQLQKVPPEWKALTDMPQMRMELERPGGNEITRGGSTSYGTGSETESPRNPSSAGSWNSGSSGPGSTGNRNPGSSGTGGTATWKPGSSGPGSTGSWNSGSSGTGSTGNQNPGSPRPGSTGTWNPGSSERGSAGHWTSESSVSGSTGQWHSESGSFRPDSPGSGNARPNNPDWGTFEEVSGNVSPGTRREYHTEKLVTSKGDKELRTGKEKVTSGSTTTTRRSCSKTVTKTVIGPDGHKEVTKEVVTSEDGSDCPEAMDLGTLSGIGTLDGFRHRHPDEAAFFDTASTGKTFPGFFSPMLGEFVSETESRGSESGIFTNTKESSSHHPGIAEFPSRGKSSSYSKQFTSSTSYNRGDSTFESKSYKMADEAGSEADHEGTHSTKRGHAKSRPVRGIHTSPLGKPSLSP
chain 2: QGVNDNEEGFFSARGHRPLDKKREEAPSLRPAPPPISGGGYRARPAKAAATQKKVERKAPDAGGCLHADPDLGVLCPTGCQLQEALLQQERPIRNSVDELNNNVEAVSQTSSSSFQYMYLLKDLWQKRQKQVKDNENVVNEYSSELEKHQLYIDETVNSNIPTNLRVLRSILENLRSKIQKLESDVSAQMEYCRTPCTVSCNIPVVSGKECEEIIRKGGETSEMYLIQPDSSVKPYRVYCDMNTENGGWTVIQNRQDGSVDFGRKWDPYKQGFGNVATNTDGKNYCGLPGEYWLGNDKISQLTRMGPTELLIEMEDWKGDKVKAHYGGFTVQNEANKYQISVNKYRGTAGNALMDGASQLMGENRTMTIHNGMFFSTYDRDNDGWLTSDPRKQCSKEDGGGWWYNRCHAANPNGRYYWGGQYTWDMAKHGTDDGVVWMNWKGSWYSMRKMSMKIRPFFPQQ
chain 3: YVATRDNCCILDERFGSYCPTTCGIADFLSTYQTKVDKDLQSLEDILHQVENKTSEVKQLIKAIQLTYNPDESSKPNMIDAATLKSRKMLEEIMKYEASILTHDSSIRYLQEIYNSNNQKIVNLKEKVAQLEAQCQEPCKDTVQIHDITGKDCQDIANKGAKQSGLYFIKPLKANQQFLVYCEIDGSGNGWTVFQKRLDGSVDFKKNWIQYKEGFGHLSPTGTTEFWLGNEKIHLISTQSAIPYALRVELEDWNGRTSTADYAMFKVGPEADKYRLTYAYFAGGDAGDAFDGFDFGDDPSDKFFTSHNGMQFSTWDNDNDKFEGNCAEQDGSGWWMNKCHAGHLNGVYYQGGTYSKASTPNGYDNGIIWATWKTRWYSMKKTTMKIIPFNRLTIGEGQQHHLGGAKQAGDV
